Columns and labels:
[1] = target: T1, human NGF protein (Sino biological, 11050-HNAC) (human, UniProt P01138 122-241); experiment: blocking ELISA: antibody titrated with fixed biotin-human NGF, on coated human TrkA
T1 construct: also called Human (monkey) NGF
Experimental: The plate was incubated at 37° C. for 1.5 h. After the incubation was complete, the plate was washed 3 times with PBST. Streptavidin-HRP (Invitrogen, 434323, diluted at 1:4000) was added at 100 μL/well, and the plate was incubated at 37° C. for 1 h. The supernatant was removed. After the plate was washed 3 times with PBST, TMB chromogenic substrate (KPL, 5120-0077) was added at 100 μL/well, and the plate was incubated at room temperature for 10 to 15 min. […] The absorbance values at 450 nm were taken using a microplate reader.

[2] = target: T1, human NGF protein (Sino biological, …); experiment: SPR (Biacore), antibody captured on Protein A chip, antigen in flow, 1:1 fit
Experimental: Reaction signals were detected in real time by using Biacore, and binding and dissociation curves were obtained. After dissociation was complete in each cycle, the biochip was washed and regenerated with a glycine-hydrochloric acid regeneration solution (GE, BR-1003-54) having a pH of 1.5. Fitting was performed on the experimental data using BIAevaluation version 4.1 software with a 1:1 model, and affinity values were obtained.

[3] = target: T2, murine NGF (Sino Biological, 50385-MNAC) (murine, UniProt P01139 122-241); experiment: ELISA on coated antigen (1 ug/mL), anti-human Fc-HRP
T2 construct: Bought protein
Experimental: (§1) The antigen was diluted to 1 μg/mL with a pH 7.4 PBS buffer (BasalMedia, B320) and added to a 96-well microplate (Coming, 9018) at 100 μL/well, and the plate was incubated overnight at 4° C. After the liquid was discarded, a 5% skim milk (BD, 232100) blocking solution diluted with PBS was added at 300 μL/well, and the plate was incubated at 37° C. for 2 h for blocking. After the blocking was complete, the blocking solution was discarded, and the plate was washed 3 times with a PBST buffer (pH 7.4 PBS containing 0.1% tween-20). Then a bispecific antibody diluted with a sample diluent (pH 7.4 containing 1% BSA) to different concentrations was added at 100 μL/well, and the plate was incubated in a 37° C. incubator for 1 h. After the incubation was complete, the plate was washed 3 times with PBST. An HRP-labeled anti-human Fc secondary antibody (Abcam, ab97225) diluted with the sample diluent was added at 100 μL/well, and the plate was incubated at 37° C. for 1 h. After the plate was washed 3 times with PBST, TMB chromogenic substrate (KPL, 5120-0077) was added at 100 μL/well, and the plate was incubated at room temperature for 10 to 15 min. 50 μL of 1 M H₂SO₄ was added to each well to stop the reactions. The absorbance values at 450 nm were taken using a microplate reader, and the EC50 values for binding of the bispecific antibody to the antigens were calculated.

[4] = target: T3, human RANKL protein (Sino Biological, 11682-HNCH) (human, UniProt O14788 136-317, limits assumed); experiment: as above
T3 construct: Bought protein
T3 sequence (looked up): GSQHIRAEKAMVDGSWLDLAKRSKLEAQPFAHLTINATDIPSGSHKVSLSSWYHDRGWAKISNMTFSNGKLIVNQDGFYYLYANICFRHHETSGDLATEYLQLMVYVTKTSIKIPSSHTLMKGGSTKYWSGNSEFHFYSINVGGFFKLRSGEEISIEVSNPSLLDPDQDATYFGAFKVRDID
Experimental: as §1

[5] = target: T4, murine RANKL (R&D Systems, 462-TR/CF) (murine, UniProt O35235 72-316, limits assumed); experiment: as above
T4 construct: Bought protein
T4 sequence (looked up): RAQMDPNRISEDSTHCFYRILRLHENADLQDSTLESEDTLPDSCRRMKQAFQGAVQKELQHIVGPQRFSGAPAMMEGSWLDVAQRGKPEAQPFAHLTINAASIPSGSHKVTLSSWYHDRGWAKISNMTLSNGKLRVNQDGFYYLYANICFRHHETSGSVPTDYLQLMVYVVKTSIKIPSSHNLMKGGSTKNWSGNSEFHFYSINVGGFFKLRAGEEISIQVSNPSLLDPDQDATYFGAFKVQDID
Experimental: as §1

[6] = target: T1, human NGF protein (Sino biological, …); experiment: as above
Experimental: as §1

[7] = target: T1, human NGF protein (Sino biological, …); experiment: cell-based or functional assay
[8] = target: T1, human NGF protein (Sino biological, …); experiment: cell-based or functional assay; remark: listed apart in the source

T1 sequence (P01138 122-241 limits assumed): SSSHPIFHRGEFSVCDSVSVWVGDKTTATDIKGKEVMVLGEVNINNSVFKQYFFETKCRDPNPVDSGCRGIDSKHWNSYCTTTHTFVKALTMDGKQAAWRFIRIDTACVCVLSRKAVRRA
T2 sequence (P01139 122-241 limits assumed): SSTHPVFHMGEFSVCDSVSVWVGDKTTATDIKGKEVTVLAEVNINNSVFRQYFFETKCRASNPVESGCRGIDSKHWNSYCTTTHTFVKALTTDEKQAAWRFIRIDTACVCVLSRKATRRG

B1: Tanezumab (antibody, human IgG2, kappa, V domains shown)
VH: QVQLQESGPGLVKPSETLSLTCTVSGFSLIGYDLNWIRQPPGKGLEWIGIIWGDGTTDYNSAVKSRVTISKDTSKNQFSLKLSSVTAADTAVYYCARGGYWYATSYYFDYWGQGTLVTVSS
VL: DIQMTQSPSSLSASVGDRVTITCRASQSISNNLNWYQQKPGKAPKLLIYYTSRFHSGVPSRFSGSGSGTDFTFTISSLQPEDIATYYCQQEHTLPYTFGQGTKLEIKR
notes: Control antibody; also called control anti-NGF antibody
IC50 [1]: 3.66 nM
Kd [2]: 0.142 nM
koff [2]: 0.000184 s⁻¹
kon [2]: 1.29e+06 M⁻¹ s⁻¹
EC50 [3]: 1.15 nM
binding result [4]: no binding
binding result [5]: no binding
EC50 [6]: 2.27 nM
TF-1 cell proliferation-inhibiting activity, fold relative to bispecific antibody 1 [7]: ~4.2 times
TF-1 cell proliferation-inhibiting activity (TF-1 cells + human NGF, Cell-titer Glo) IC50 [8]: 0.759 nM
